Laboratory results taken from publication PMC9574740.
Like-named read-outs stand apart in the source and are kept apart here.

Columns and labels:
Test in all cases: crystal structure
[1] = target: Chaetomium thermophilum Ahp1 C30S (Chaetomium thermophilum)
[2] = target: Chaetomium thermophilum Ahp1 C30S (Chaetomium thermophilum); remark: listed apart in the source
[3] = target: Chaetomium thermophilum Ahp1, wild type (Chaetomium thermophilum)

Substance | stoichiometry N [1] | stoichiometry N [2] | stoichiometry N [3]
Chaetomium thermophilum Ahp1 C30S (enzyme) | 2 | 2 | 
Chaetomium thermophilum Ahp1, wild type (enzyme) |  |  | 2
